Results on five molecules are retold here after US11371056B2, “HPPD variants and methods of use” (BASF Agricultural Solutions Seed US LLC, priority 2017, dated 2022).

In this data set the test system is Pseudomonas fluorescens HPPD polypeptide (wild-type and mutants). The data set is described as follows: Coupled HPPD activity assay: turnover and residual turnover in crude HPPD polypeptide extracts with and without Cmpd. 1. It is filed as biochemical. Conditions: for Residual turnover [%]: 100 μM Cmpd. 1, normalised to turnover without inhibitor; for Turnover: absence of Cmpd. 1; for Turnover / Residual turnover: changes in absorbance (OD) at 320 nm in the coupled assay, 30 min; for Residual turnover: presence of 100 μM Cmpd. 1.

B1: SEQ ID NO:54 (protein)
chain: MADLYENPMGLMGFEFIEFASPTPGTLEPIFEIMGFTKVATHRSKNVHLYRQGEINLILNNEPNSIASYFAAEHGPSVCGMAFRVKDSQKAYNRALELGAQPIHIDTGPMELNLPAIKGIGGAPLYLIDRFGEGSSIYDIDFVYLEGVERNPVGAGLKVIDHLTHNVYRGRMVYWANFYEKLFNFREARYFDIKGEYTGLTSKAMSAPDGMIRIPLNEESSKGAGQIEEFLMQFNGEGIQHVAFLTDDLVKTWDALKKIGMRFLTAPGDEYYEMLEGRLPDHGEPVDQLQARGILLDGSSVEGDKRLLLQIFSEKLMGPVFFEFIQRKGDDGFGPHSFKVLFEQMERDQVRRGVLTAD
modifications: mutant HPPD polypeptide
For B1, the “Residual turnover [%]” value came out at 82%, the Turnover stood at 0.274 and the Residual turnover is recorded as 0.224.

B2: SEQ ID NO:59 (protein)
chain: MADLYENPMGLMGFEFIEFASPTPGTLEPIFEIMGFTKVATHRSKNVHLYRQGEINLILNNEPNSIASYFAAEHGPSVCGMAFRVKDSQKAYNRALELGAQPIHIDTGPMELNLPAIKGIGGAPLYLIDRFGEGSSIYDIDFVYLEGVERNPVGAGLKVIDHLTHNVYRGRMVYWANFYEKLFNFREARYFDIKGEYTGLTSKAMSAPDGMIRIPLNEESSKGAGQIEEFLMQFNGEGIQHVAFLTDDLVKTWDALKKIGMRFLTAPGDEYYEMLEGRLPDHGEPVDQLQARGILLDGSSVEGDKRLLLQIFSEKLMGPVFFEFIQRKGDDGFGPDSFKVLFEQMERDQVRRGVLTAD
modifications: mutant HPPD polypeptide
Turning to B2, the “Residual turnover [%]” value amounted to 59%, the Turnover amounted to 0.215 and the Residual turnover stood at 0.126.

B3: SEQ ID NO:58 (protein)
chain: MADLYENPMGLMGFEFIEFASPTPGTLEPIFEIMGFTKVATHRSKNVHLYRQGEINLILNNEPNSIASYFAAEHGPSVCGMAFRVKDSQKAYNRALELGAQPIHIDTGPMELNLPAIKGIGGAPLYLIDRFGEGSSIYDIDFVYLEGVERNPVGAGLKVIDHLTHNVYRGRMVYWANFYEKLFNFREARYFDIKGEYTGLTSKAMSAPDGMIKIPLNEESSKGAGQIEEFLMQFNGEGIQHVAFLTDDLVKTWDALKKIGMRFLTAPGDEYYEMLEGRLPDHGEPVDQLQARGILLDGSSVEGDKRLLLQIFSEQLMGPVFFEFIQRKGDDGFGPHSFKVLFEQMERDQVRRGVLTAD
modifications: mutant HPPD polypeptide
In the case of B3, the “Residual turnover [%]” value was found to be 81%, the Turnover amounted to 0.339 and the Residual turnover was found to be 0.276.

B4: SEQ ID NO:55 (protein)
chain: MADLYENPMGLMGFEFIEFASPTPGTLEPIFEIMGFTKVATHRSKNVHLYRQGEINLILNNEPNSIASYFAAEHGPSVCGMAFRVKDSQKAYNRALELGAQPIHIDTGPMELNLPAIKGIGGAPLYLIDRFGEGSSIYDIDFVYLEGVERNPVGAGLKVIDHLTHNVYRGRMVYWANFYEKLFNFREARYFDIKGEYTGLTSKAMSAPDGMIRIPLNEESSKGAGQIEEFLMQFNGEGIQHVAFLTDDLVKTWDALKKIGMRFLTAPGDEYYEMLEGRLPDHGEPVDQLQARGILLDGSSVEGDKRLLLQIFSEKLMGPVFFEFIQRKGDDGFGPHSFKVLFESMERDQVRRGVLTAD
modifications: mutant HPPD polypeptide
For the molecule B4, the “Residual turnover [%]” value is recorded as 58%, the Turnover worked out at 0.303 and the Residual turnover is 0.177.

B5: SEQ ID NO:56 (protein)
chain: MADLYENPMGLMGFEFIEFASPTPGTLEPIFEIMGFTKVATHRSKNVHLYRQGEINLILNNEPNSIASYFAAEHGPSVCGMAFRVKDSQKAYNRALELGAQPIHIDTGPMELNLPAIKGIGGAPLYLIDRFGEGSSIYDIDFVYLEGVERNPVGAGLKVIDHLTHNVYRGRMVYWANFYEKLFNFREARYFDIKGEYTGLTSKAMSAPDGMIRIPLNEESSKGAGQIEEFLMQFNGEGIQHVAFLTDDLVKTWDALKKIGMRFLTAPGDEYYEMLEGRLPDHGEPVDQLQARGILLDGSSVEGDKRLLLQIFSEQLMGPVFFEFIQRKGDDGFGPHSFKVLFEQMERDQVRRGVLTAD
modifications: mutant HPPD polypeptide
Consider B5, for which the “Residual turnover [%]” value came out at 75%, the Turnover was 0.339 and the Residual turnover was 0.253.
